Measured values taken from the DeepSol protein solubility set.

Assay: soluble on expression in E. coli; label from the status in PepcDB or PDB records

Sequence	soluble on expression in E. coli
MPSCEINLIFNDSEEPVTLRDTGIIMLVPVILRSVQSEFPDFENQDNVKVTSPLSIPFNKKAGVFLFEYIQKYVPPNDDTIHELTVVENYKEAGQKTLDELKEIIELANFFECTDFMECLGFVIGKKLEDKSVEEIAAYMGVECNAPGHFFDEADGWVHPPADAFQNVQ	not soluble
MQVSDLFIREMPSDCLPRERLLAIGEKALSNQELLAILLRTGSKEADVMTVAATLLKQFKQLSYLQQATLNELMAIKGIGQVKAIELRAAIELGCRIYQSSQIKFGKVTSSQQVAQRLLQEMKGLQQEHLICIYLNTKNDIIQQKTIFKGSLNQSIAHPREIFREAVKYSSARILLAHNHPSGNPTPSPQDIQFTKRMEECGEMMGIQLLDHIILGDSGYISLREENFFASE	not soluble
MGGMLRRLEVQNLAVIREAALDFAPGLNVLTGETGAGKSLLVDALALLLGGRAEGLIGPYGESLLVTAFFEGPPGEAVLSRRVGARSTPRVDGEVVTLKELQAEAERRLSLHAQHTALALLSPRRQREALDALLPEGLLAAYQEAYARREALLKEKAALEESLKARAEREDLLRYQIREIEEARVRPGEEEELLALAERLRHLETIRERLARALALLTEREAQDLLALAAKEVRAAARHDPALEALAEELSGAAEAVRAVARELEDHLEGLDLDPEELDRVEARLSLLERLKRKYGPTLADVLAHAQKAREELARMEGGEERLSEVERLLKALHEEVEARGQALRRAREEAARRLTEGMVRELPALGLAGARFAVVLEPLPEPGPQGLEAVAFRVAPNPNLPPAPLEALSGGELSRVALALALLTGTEAPTVVFDEVDAGVGGETAWRLAERLKRLAERRQVLVVTHLPQVAAVAQRHFRVTKTPEGVRVEPLAGEARVKEIARLLSGAYTQAALAHARELLEAQGAL	soluble
MTYQDRSGATAVVQSSYQLVLLTPAAIHGADPREKAEFRLSSLRGVWRYWWRTLQDEPDPEKLLAKEEEWFGGTRKMKQQSPIHLSMAGVMEGTKKENILPHRTSPTLVPALPAGGEVTVTLSVRKRHQERLAQYDWYFQYVLHLASFGQRSRRGFGAVQWIGHQWSNVGEYVESLRMVLEHIGVAGAFSFAERDCLVARRGDIQTQHPVLSAVWIGEGKESAAEVVKAFGKASHEANRYGSLGYMRGKAGKLSSTLWCTVRKIGNWYYPIVTEVRNHDPHYSEPRYEQDRNRFLEIVGVRI	not soluble
MLIELLISITVLASILVSCKKEKNEAAKLKPRGFDRKSSGAPAPAGANLVNKSGGSGGGSGGSGDANRLLKREIKEVKMEERSADDNETINDVKSNWGTV	not soluble
MLLETTPIKANHLRSILDYIEQEQLTAEDRNHCMKLSKKKSIEKKTIHPTVNLNGSACFLQSPSDAIFCRHLSLQYALDSLRNGKGKVNLIKHYSSVESIQQHVPLVRDAEFRALLRHPPAGSRVIASKDFGFALDIFFCRMMANNVSHMSAILYIDNHTLSVRLRIKQSVYGQLNYVVSVYDPNDTNVAVRDTHRTARGFLSLDKFISSGPDAQTWADRYVRNCAIAILPLLPVGVPGAIFAGIASRMPFAPIHPSAMLLIMATGQSQQLITLFKQLPILPEKEIIEIITAQNSVGTPALEHHHHHH	soluble
MSLQEDPVVMRINGKDIPRSEFEYSYRRHADGNGMKLSPKEYAEFFIQSKLKVEAARAAGLDTTSAFRKQQEAYRTNLLRSYLLDDQEMDGNARILYQKMKENVRGGQVQIQQIYKYLPQTITSRHLQEEQARMDSIYQVIQNQPGVDFARLVDRFSDDKRCRWIESLQTTSEFEEAAFSLAKGEISKPFFTPEGIHILKVIDRKEVPAYEVVSDSLLNRLRRQPLDKGTEAIVEQLKKEYQYIPNMESLEEVLQKGGTERTLFTIDGQAYTGEMFKRFAASHPQAVKRQLNGFIAKSLLDYESQHMERKHPELRYTLQEYAEKCLAEEIVHQKVDLPAVNDRVGLATYFKFHSSDYRWEHPRYKGVVLHCADKKTAKQAKKLLKKVPENEWEDMLRKTFNTSGAEIIKIEQGVFADGDNKYIDKLVFKKGAFDPVVSYPFTIAVGKKQKGPEDYREVIDQVRKDYRNYLNAYWERELRESGKVEINQEVLKTVNNEGHHHHHH	soluble
MKTVVFAYHDMGCLGIEALLAAGYEISAIFTHTDNPGEKAFYGSVARLAAERGIPVYAPDNVNHPLWVERIAQLSPDVIFSFYYRHLIYDEILQLAPAGAFNLHGSLLPKYRGRAPLNWVLVNGETETGVTLHRMVKRADAGAIVAQLRIAIAPDDIAITLHHKLCHAARQLLEQTLPAIKHGNILEIAQRENEATCFGRRTPDDSFLEWHKPASVLHNMVRAVADPWPGAFSYVGNQKFTVWSSRVHPHASKAQPGSVISVAPLLIACGDGALEIVTGQAGDGITMQGSQLAQTLGLVQGSRLNSQPACTARRRTRVLILGVNGFIGNHLTERLLREDHYEVYGLDIGSDAISRFLNHPHFHFVEGDISIHSEWIEYHVKKCDVVLPLVAIATPIEYTRNPLRVFELDFEENLRIIRYCVKYRKRIIFPSTSEVYGMCSDKYFDEDHSNLIVGPVNKPRWIYSVSKQLLDRVIWAYGEKEGLQFTLFRPFNWMGPRLDNLNAARIGSSRAITQLILNLVEGSPIKLIDGGKQKRCFTDIRDGIEALYRIIENAGNRCDGEIINIGNPENEASIEELGEMLLASFEKHPLRHHFPPFAGFRVVESSSYYGKGYQDVEHRKPSIRNAHRCLDWEPKIDMQETIDETLDFFLRTVDLTDKPS	soluble
MPIKVKYYGNVVFASDAVCGQAENYATLKAMKEVGNYTISIQTFENAENVYPEEFLAKPVADEHYLTTEDGSVGIKGHYLDIVKELIEKDKVDIIFAGGKLGSLAKLAELTRPYGIPTLEHHHHHH	not soluble
MAKPSFSCSACGASFTKWSGRCEGCGDWNTISQDAGLSAGPAKKSLGAKRGRAVTLTDLASEEAPPPRAMSGIGELDRVLGGGLVPASAILVGGDPGIGKSTLLLQAVAAFARKGLKTLYVSGEEASAQVRMRARRLGLADAPVQLAAETNLRDILTTLEAEKPGLVIIDSIQTMWADNVDSAPGSVSQVRASAHELTTFAKRTGISVIMVGHVTKDGQIAGPRVVEHMVDTVLYFEGERGHQFRILRSVKNRFGAADEIGVFEMTGAGLAEVTNPSALFLSERGAPSPGSVVFAGIEGTRPVLVELQALVAPSPHSQPRRTVVGWDGGRLAMILAVLEARCGIPFAGLDVYLNVAGGLKISEPAADLAVAAALLSAREDRALPGDTVIFGEISLSGALRPASQTENRLKEAQKLGFTSAIAPAGGKTGTLEGLTMTRPTDLVGFVGEFFGAGLEHHHHHH	not soluble
MGSDKIHHHHHHAPGQTAQPGRPPTQPQGWSMTVGLAPVYGMAWQGSKDTALSIFPDLRVNYKDALFLSVPEGLGWNAVNANGWKAGPLLKARFGRNEDDGGSPFQIAGGSDALRGMGDIGIAGEAGAFVEKRFGTRQQWRARAEVRQGFGGHEGIVGDISLNWSGRTGRTILSAGPRATFASREYMQTYFGVDAVQASRTGLAASRLGGGLVSYGLGASIVQPLDRRRAVTVFGGADRLGGEPAGSSLIRERGQRTQFVVGVGYGFRFGL	not soluble
MGSDKIHHHHHHMTPYRDNTPHLARDNHLLFTELARDYCLSMPISFKEALDRAQDATGLSMRKLADKAGVSYEQLKKVRQGKSQTTNAEDALKIATAVGVSFEQFMSGEFDASPTISIAGKVGAGAQVPVFDAYEKGDGPQVECPPGIGPHGVVAVEVEGDSMEPVYSAGDLLFYSRNGHDSVPDDVIGYKCVCEDADGMGWVKQVKAGDEPGLFHLISLNPTGANMWNVRLKWAARVRLHWPAEFARKK	not soluble
MGSDKIHHHHHHMNVINETANVLKLETGSVTSAKGFSAVGIHTGVKRKRKDLGAIVCEVPASSAAVYTLNKVQAAPLKVTQESIAVEGKLQAMIVNSGIANACTGKRGLDDAYTMRAVGAETFHIPEHYVAVTSTGVIGEFLPMDVITNGIRQLKPEATIEGAHAFNEAILTTDTVEKHTCYQTIVNGKTVTVGGVAKGSGMIHPNMA	soluble
MPKKVLIFCDPGIDDTMALLLAFFIDEIEIVGIVADYGNVPKKMAVENAHFFNNETKNRNIKIFGGSERPLTGAPPAFFTDVHGKQGLGPIIPKVNVTNGEMENFFEVIPLIEQYKDELIIVSLGRLTSLAILFIMCKQLMKQIKSYYVMGGAFLHPGNVTPISEANFYGDPTAANIVLQSTANMYIYPLNVTQYSIITPEMAEYIEAKGKAPLVKTLFDHYYYGYYKDALPHLKGSPFHDTIPILALLDNSMFTYHKSPIVVMTESYAQGASIGEFRSLGESKPFIDWPSHQIAIDFDYNRFFKHFMSLMTGEQF	not soluble
MSLKKTVSLCDITITQMLEEDSNQGHLIGDFSKVCALPTVSGKHQDLKYVNPETVAALLSGKFQGLIEKFYVIDCRYPYEYLGGHIQGALNLYSQEELFNFFLKKPIVPLDTQKRIIIVFHCEFSSERGPRMCRCLREEDRSLNQYPALYYPELYILKGGYRDFFPEYMELCEPQSYCPMHHQDHKTELLRCRSQSKVQEEGHHHHHH	soluble
MLWQQKSFTEQTEQGTLYIVPTPIGNLEDMTFRAVRTLQEADVIAAEDTRQTKKLLAHFGIHTPLVSYHEHNKYASGRQLVEWLKEGKTVALVSDAGMPGISDPGYELIAAALAERCRVVPLPGANAALTALVASGLPTDRFLFVGFLKRAKKEKKEQLLSLKTAAETLIFYEAPHRLKETLALMYDIFGNRRIALGRELTKRFEEFIRGDLSDAVAWAEEHDIRGEFCLIVEGARDGNKQEQEGEEWWQPLSLVEHVDYYIREHSLSVKEAVKQAASDRNMSKRDVYRQYHQQQEEEKKEFL	not soluble
MGSDKIHHHHHHMPFANPQEAIDFLDKHPQVQHVEVFIIDPNGIPRGKLLHRQEVLSMYRHGRPLPSTILGLTVQGDDVEDTGLVWEVGDADCLAFPIEGGLLMQPWRAQPTAQVHLTMHPEAGMPAAVADPRLVLSKVIDSLQADGFYPVMAAELEFFLLDQRFDANGRPQPAMQSDGHRPHQTQVYGILELERLQPFLDDLYHACEVQGIPARTAISEYAPGQVEITLEHRFDALQAMDEAVRYKRLVKGVAAKHGMQACFMAKPFGELAGSGMHMHVSLADADGNNRFASDNPEGTPELTQSIAGMMATLEDAQLLFCPNANSFRRFQSASYAPIAKTWGVNNRTVSFRVPGGPAPSRHVEHRICGADANPYLAAAAILAACHHGIRNQLSPGQAIVGNGYEGKHQTLPTDWLSALTNFERSEWMKSVLGEDFHRIYGRIKRAEYQEFMAEVGQQDWHWYLTHA	not soluble
MVSEPKVPKAPRPPKQPNVQDFQFFPPRLFELLEKEILYYRKTIGYKVPRNPDLPNSAQVQKEEQLKIDEAEPLNDEELEEKEKLLTQGFTNWNKRDFNQFIKANEKWGRDDIENIAREVEGKTPEEVIEYSAVFWERCNELQDIEKTMAQIERGEARIQRRISILEHHHHHH	soluble
MGSDKIHHHHHHMQSYSLAELNKETTIGGIGKTVERDVPVIDLADFDNRKAEIADQLWEASVGIGFFQVYNHGIPQQDIDAAFETAWSFFELPADIKAQYPMPKGTNAGWEFKAQVRPSTGTPDNKESYQITRPMMGGLWPSEEELPDFKEKMLRFERQNWELGMRILSCFALKMGFAEDFFTKAHDPASSEYQSTQRLIHYMSMEHAKPEDFEFWRAGAHSDFDCLTILHQKEGEGGLQVCPGKDAASGEWTDVPPKNGYITCNIGDMLMRWSDDQLQSTLHRVRMPRPGEYLGRRLSLPFFCQANRDAVMQGPLGKYEAITAGDYLTQRINANFARK	not soluble
